Reference: patent publication US9163227B2, “Anti-diabetic compounds” (PFIZER INC., priority 2011, dated 2015)
Positions count from the first letter of the chain named. Names and notes keep the numbering of the source. Like-named read-outs stand apart in the source and are kept apart here. Marks after values point to notes of the source that are not given here.

Key:
[1] = test system: high-fat diet-induced obese mice; experiment: Serum lipids in DIO mice; assay type: in vivo; settings: day 10, 1 mg/kg QD
[2] = target: Glut1 mRNA expression in differentiated 3T3-L1 adipocytes (Mus musculus, UniProt P16092+Q99N32); experiment: Glut1 Taqman assay; assay type: cell-based
Protocol: Differentiated 3T3-L1 adipocytes were used to measure the Glut1 mRNA expression by qPCR method. Overnight serum starved day 10-14 differentiated 3T3-L1 adipocytes were treated with compounds for 6 hrs. Total RNA was extracted from these cells, and Glut1 and GAPDH mRNA expression was measured using a Quantitect Probe RT-PCR kit and running a quantitative real time PCR reaction in a Taqman machine (Applied Biosystems®). The bioactivity of the compounds was determined by a fold change in Glut1 mRNA levels normalized by the GAPDH mRNA levels from each sample. EC═values as measurements of the potency of the compounds were obtained from the dose response curves in the assay.
3T3-L1 adipocytes were seeded at day 8 in 24-well tissue culture plates (Falcon®, Cat#353047), and incubated in DMEM complete medium (10% FBS, 2 mM L-glutamine, 1% P/S) at 37° C., 5% CO2. […] The medium was aspirated, and then RNA extracted from the cells using the RNeasy mini Kit according to the manufacturer's instructions. RNA was measured at A260 nm using the Spectramax® Plus spectrophotometer.
In Glut1 Taqman assay, differentiated 3T3-L1 adipocytes were used to measure the Glut1 mRNA expression by real-time quantitative PCR (qPCR) method described below. Overnight serum starved day 10-14 differentiated 3T3-L1 adipocytes were treated with compounds for 6 hrs. Total RNA was extracted from these cells, and Glut1 and GAPDH mRNA expression was measured using a Quantitect Probe RT-PCR kit and running a real time quantitative PCR reaction in a Taqman machine. The bioactivity of the compounds was determined by a fold change in Glut1 mRNA levels normalized by the GAPDH mRNA levels from each sample. In cAMP assay, Chinese hamster ovary (CHO) cells over-expressing human GLP-1R(CHO-hGLP-1R) were seeded in 96-well plates in serum-free medium with 300 uM IBMX. Cells were incubated with compounds at RT for 1 hr. The cAMP levels were measured using a CisBio cAMP Kit according to manufacturer's instructions. The bioactivity of the compounds was determined by the EC50 values obtained from the assay (see Table 42).

[3] = Mouse pharmacokinetics of FGF21 antibody conjugates; assay type: in vivo, Swiss-Webster mice; settings: mouse PK; antibody conjugate at the named site (protein for FGF21ΔH)
Protocol: The PK of FGF21 antibody conjugates were examined in mice after IV or SC administration. […] Antibody conjugates concentrations in serum were determined using an ELISA which captured the FGF21 portion of the antibody conjugates through a monoclonal anti-hFGF21 antibody bound to a 96-well plate. FGF21 antibody conjugates bound to the plate were detected through an anti-hFc monoclonal antibody, and concentrations were determined using a standard curve of the PK dosing solution diluted into serum-containing assay buffer. SC bioavailability was calculated as the ratio of the area-under the curve (AUC) of the SC serum concentration profile divided by the AUC of the IV serum concentration profile.

[4] = test system: high-fat diet-induced obese mice; experiment: Oral glucose tolerance test in DIO mice (FGF21 conjugates); assay type: in vivo; settings: day 10, 1 mg/kg QD
Protocol: (§1) The efficacy of FGF21 antibodies conjugates was evaluated in two murine obese insulin resistant models—ob/ob mice and high-fat diet-induced obese mice. For both models, male mice (6-8 weeks of age for ob/ob, 12-14 weeks of age for DIO with high-fat diet initiated at 6 weeks of age) were housed 2-4/cage and FGF21 antibody conjugates were administered by SC injection. Body weight was measured daily in the morning. Glucose tolerance was assessed by oral glucose tolerance test. Briefly, mice were fasted for 4-5 hrs in the morning of the day of testing. A basal blood sample was obtained and blood glucose levels were determined using a portable glucometer.

ob/ob mice = experiment: Oral glucose tolerance test in ob/ob mice (FGF21 conjugates); assay type: in vivo; settings: for mean glucose AUC % during OGTT: FIG. 6B; for Mean Glucose AUC (% of vehicle control) during OGTT: FIGS. 4A/4B
Protocol: as §1

[5] = target: differentiated 3T3-L1 adipocytes (Mus musculus, UniProt P16092+Q99N32); experiment: Glucose uptake assay; assay type: cell-based; settings: unconjugated protein (per Examples 18-21); n in parentheses
Protocol: Differentiated 3T3-L1 adipocytes were treated with compounds in the absence of serum for 24 hrs. Cells were then incubated with ^14C-2-deoxyglucose for 1 hr and glucose uptake into the cells was quantitated in Wallac 1450 MicroBeta (Trilux) instrument. Glucose uptake was expressed in counts per min (CPM). EC50 values as measurements of the potency of the compounds were obtained from the dose response curves in the assay.

[6] = Body weight and liver weight in ob/ob mice; assay type: in vivo; settings: for mean liver weight: FIG. 5B
Protocol: as §1

[7] = test system: SCD1, MOGAT2, FoxA2 mRNA in liver; experiment: Hepatic gene expression (qPCR) in ob/ob mice; assay type: in vivo; settings: day 6, 1 mg/kg QD
[8] = Stability assay of FGF21ΔH-D79C; assay type: physicochemical
Protocol: FGF21ΔH-D790 mutant protein was produced in E. coli and purified as described above. FGF21ΔH-D790 was expressed from 1 L of culture. A 150 mg inclusion body was obtained and 85 mg purified protein was obtained, representing a 60% yield. To test the stability of FGF21ΔH-D790 as well as FGF21ΔH (SEQ ID NO:2), freshly thawed samples were kept at 4° C. over seven days, and examined for their integrity by RP-HPLC, SEC_HPLC, Ellman assay and SDS-PAGE on day 0, 3 and 7. […] PBS (pH7.4) and 20 mM Tris-HCl 50 mM NaCl (pH7.5) made no significant difference of stability of FGF21ΔH-D79C.
It is possible that the solubility of FGF21ΔH-D79C may be reduced at pH6.0. The stability of FGF21ΔH-D79C was examined upon multiple freeze/thaw cycles. The proteins were repeated to freeze (−80 C) and thaw (4° C.) 9 times.

DIO mice = experiment: Sub-chronic and single dose efficacy of ABC-1 in DIO mice (body weight, food intake, OGTT, cholesterol, liver triglycerides); assay type: in vivo; settings: Table 54: DIO mice, single SC 0.6 mg/kg
Protocol: Sub Chronic Dose Efficacy. […] All compounds were dosed SC once weekly, body weight and food intake was measured twice weekly, and an OGTT was conducted on day 17, 3 days after the 3rd weekly dose. On day 20, liver and serum samples were collected for lipid analysis.
All compounds were administered SC on day 0, body weight was measured twice weekly, and OGTT was conducted on day 7, 13, and 21. […] The sustained efficacy of the ABC-1 in vivo supports once weekly dosing of the compound.
Sub Chronic Dose Efficacy. […] All compounds were administered SC once weekly. Body weight was measured twice weekly, and an OGTT was conducted 3 days after the 3rd weekly dose.

Glut1 mRNA expression in differentiated 3T3-L1 adipocytes, sequence (P16092 22-822): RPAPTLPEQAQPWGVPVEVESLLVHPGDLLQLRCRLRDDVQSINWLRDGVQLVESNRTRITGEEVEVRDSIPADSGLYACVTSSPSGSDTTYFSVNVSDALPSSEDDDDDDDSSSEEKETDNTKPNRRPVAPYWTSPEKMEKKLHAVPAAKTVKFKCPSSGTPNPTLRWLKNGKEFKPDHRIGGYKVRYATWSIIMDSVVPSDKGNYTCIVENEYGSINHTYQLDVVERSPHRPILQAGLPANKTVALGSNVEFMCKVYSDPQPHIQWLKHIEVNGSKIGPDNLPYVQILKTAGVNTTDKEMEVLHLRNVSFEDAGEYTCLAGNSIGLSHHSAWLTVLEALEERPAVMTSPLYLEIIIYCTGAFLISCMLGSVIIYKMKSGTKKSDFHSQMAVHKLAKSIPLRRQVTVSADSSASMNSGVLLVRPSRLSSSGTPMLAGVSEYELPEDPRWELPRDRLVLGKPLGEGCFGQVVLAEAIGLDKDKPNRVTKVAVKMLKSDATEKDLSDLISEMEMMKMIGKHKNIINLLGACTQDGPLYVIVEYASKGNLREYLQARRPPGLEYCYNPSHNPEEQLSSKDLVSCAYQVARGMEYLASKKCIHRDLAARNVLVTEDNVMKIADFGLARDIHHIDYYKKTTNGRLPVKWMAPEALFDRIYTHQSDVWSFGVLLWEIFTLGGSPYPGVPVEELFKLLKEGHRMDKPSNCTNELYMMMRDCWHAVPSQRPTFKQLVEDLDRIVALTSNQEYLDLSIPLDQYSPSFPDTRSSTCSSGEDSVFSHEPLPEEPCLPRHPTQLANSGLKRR
Glut1 mRNA expression in differentiated 3T3-L1 adipocytes, sequence (Q99N32 whole entry): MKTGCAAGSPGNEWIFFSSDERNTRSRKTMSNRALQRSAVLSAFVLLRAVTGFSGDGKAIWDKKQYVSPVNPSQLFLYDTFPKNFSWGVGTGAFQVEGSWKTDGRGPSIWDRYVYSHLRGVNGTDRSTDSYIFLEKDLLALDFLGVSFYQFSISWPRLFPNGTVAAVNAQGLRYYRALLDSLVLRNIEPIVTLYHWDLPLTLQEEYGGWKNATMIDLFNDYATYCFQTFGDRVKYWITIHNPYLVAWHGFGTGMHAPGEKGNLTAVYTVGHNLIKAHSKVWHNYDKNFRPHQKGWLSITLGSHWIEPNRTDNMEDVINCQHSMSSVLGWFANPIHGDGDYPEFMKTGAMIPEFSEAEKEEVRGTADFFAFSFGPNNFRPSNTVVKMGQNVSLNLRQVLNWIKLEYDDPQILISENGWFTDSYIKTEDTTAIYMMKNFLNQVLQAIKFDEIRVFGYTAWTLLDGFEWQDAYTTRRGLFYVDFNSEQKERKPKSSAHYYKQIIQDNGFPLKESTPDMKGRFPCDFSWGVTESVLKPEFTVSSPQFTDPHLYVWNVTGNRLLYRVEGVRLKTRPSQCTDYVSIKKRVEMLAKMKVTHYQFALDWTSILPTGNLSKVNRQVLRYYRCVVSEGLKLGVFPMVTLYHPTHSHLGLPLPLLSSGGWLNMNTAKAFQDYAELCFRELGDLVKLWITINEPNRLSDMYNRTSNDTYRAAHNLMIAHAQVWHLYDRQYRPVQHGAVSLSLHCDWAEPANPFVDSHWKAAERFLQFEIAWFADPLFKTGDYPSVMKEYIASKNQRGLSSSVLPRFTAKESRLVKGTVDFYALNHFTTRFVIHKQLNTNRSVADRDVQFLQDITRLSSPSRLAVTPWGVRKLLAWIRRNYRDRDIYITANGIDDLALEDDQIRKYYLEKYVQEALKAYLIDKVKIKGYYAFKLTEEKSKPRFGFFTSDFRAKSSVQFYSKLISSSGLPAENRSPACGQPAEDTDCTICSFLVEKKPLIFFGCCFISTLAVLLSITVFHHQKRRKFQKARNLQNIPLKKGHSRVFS
differentiated 3T3-L1 adipocytes, sequence (P16092 22-822): as the sequence (P16092 22-822) above
differentiated 3T3-L1 adipocytes, sequence (Q99N32 whole entry): as the sequence (Q99N32 whole entry) above

B1: FGF21ΔH: FGF21 with H1 absent, L146 (SEQ ID NO:2), produced from E. coli (protein, listed as Homo sapiens)
chain: PIPDSSPLLQFGGQVRQRYLYTDDAQQTEAHLEIREDGTVGGAADQSPESLLQLKALKPGVIQILGVKTSRFLCQRPDGALYGSLHFDPEACSFRELLLEDGYNVYQSEAHGLPLHLPGNKSPHRDPAPRGPARFLPLPGLPPALPEPPGILAPQPPDVGSSDPLSMVGPSQGRSPSYAS
- Mean values of serum lipids NEFA (mM) (SEM) [1]: 0.40 (0.04) mM
- Mean values of serum lipids TG (mg/dL) (SEM) [1]: 92 (9.6)** mg/dL
- activity in Glut1 Taqman assay (in words) ([2]; 3T3-L1 adipocytes): dose-dependent Glut1 induction
- EC50 ([2]; 3T3-L1 adipocytes, serum-free DMEM 0.2% BSA, 6 hrs, Taqman quantitative real-time PCR, read-out: Glut1 RNA expression EC50): 3.39 nM
- EC50 ([2]; unconjugated FGF21 mutant protein, n in parentheses, read-out: Glut1 Taqman unconjugated Protein EC50): 2.3 nM
- % SC BioAv [3]: 96%
- IV T1/2 [3]: 24 min
- SC T1/2 [3]: 30 min
- Glucose AUC during OGTT (% of vehicle control) [4]: 75*** % of vehicle control
- mean glucose AUC % during OGTT (ob/ob mice; ob/ob mice, single dose, dose not given): 63%
- Mean Glucose AUC (% of vehicle control) during OGTT (ob/ob mice; ob/ob mice, single SC dose 0.6 mg/kg): 103 % of vehicle control
- Mean Glucose AUC (% of vehicle control) during OGTT (ob/ob mice; ob/ob mice, single SC dose 1 mg/kg): 74 % of vehicle control
- Mean Glucose AUC (% of vehicle control) (ob/ob mice; ob/ob mice, OGTT on day 6, 1 mg/kg QD): 61** % of vehicle control
- Glucose AUC during OGTT (% of vehicle control) (ob/ob mice; ob/ob mice, day 6, 1 mg/kg QD): 67*** % of vehicle control
- GTT* (% AUC of Ctrl) (ob/ob mice; protein, 1 mg/kg Qd): 67 % AUC of Ctrl
- EC50 [5]: 12 nM
- Cumulative body weight change, mean body weight ([6]; FIG. 5A, single SC dose 0.6 mg/kg): 3.2 g
- Cumulative body weight change, mean body weight ([6]; FIG. 5A, single SC dose 1 mg/kg): 2.5 g
- mean liver weight ([6]; single SC dose 0.6 mg/kg): 2.4 g
- mean liver weight ([6]; single SC dose 1 mg/kg): 2.2 g
- Cumulative body weight change, mean body weight ([6]; FIG. 6A, single dose, dose not given): 1.9 g
- Mean fold change of mRNA expression, FoxA2 (SEM) [7]: 1.23 (0.08) fold
- Mean fold change of mRNA expression, MOGAT2 (SEM) [7]: 0.37 (0.05)** fold
- Mean fold change of mRNA expression, SCD1 (SEM) [7]: 0.95 (0.06) fold

B2: FGF21ΔH-D79C: FGF21 cysteine mutant, SEQ ID NO:12 (protein, listed as Homo sapiens)
chain: B1 chain with D78C
- EC50 ([2]; differentiated 3T3-L1 adipocytes, 6 hrs, protein or antibody conjugate as labelled, read-out: Glut1 Taqman assay EC50): 2.1 nM
- mean glucose AUC % during OGTT (ob/ob mice; ob/ob mice, single dose 10 mg/ml (so in the source)): 54%
- stability upon freeze/thaw cycles ([8]; freeze (−80 C) and thaw (4° C.) 9 times, RP-HPLC, SEC and Ellman assay): Neither sample showed any difference between cycle 1 and cycles 9
- stability (oxidation, dimerization) ([8]; neutral pH 7.4, 4° C., seven-day incubation): stable
- portion oxidized ([8]; pH 6.0, 4° C., three-day incubation): more than half
- Cumulative body weight change, mean body weight ([6]; FIG. 6A, single dose 2 mg/kg): 2.1 g

B3: FGF21: Fibroblast growth factor (FGF) 21, wild type (protein, listed as Homo sapiens)
chain: B1 chain
- EC50 ([2]; Glut1 Taqman, 3T3-L1 adipocytes, 6 hrs, read-out: FGF21 (Glut1) EC50): 2.1 nM
- Mean Body Weight Change (g) (SEM) (DIO mice; Day 7): +1.4 g
- Mean Glucose AUC (% of vehicle control) (DIO mice; OGTT Day 7): 99 % of vehicle control
